Results: the supplement of paper PMC9112550, “Optimization of the antimicrobial peptide Bac7 by deep mutational scanning” (BMC Biology, 2022)

test system: Escherichia coli TOP10; test: shrunken log2 fold change of peptide-encoding DNA abundance (4.5 h post-induction vs induction); higher = less antimicrobial activity (less host growth inhibition); settings: time post-induction: 4.5 h; library: site-saturation at positions 5, 18, 19, 20
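Also: peptides expressed intracellularly from a pBAD plasmid library in pooled LB shake-flask culture, induced with 0.3% L-arabinose, DNA abundance read by NGS, three biological replicates, DESeq2 with apeglm shrinkage.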

Sequence	shrunken log2 fold change
RRIRERPPRLPRPRPRPPVSPRP	0.0232
RRIRTRPPRLPRPRPRPHGTPRP	0.219
RRIRTRPPRLPRPRPRPSRKPRP	0.0182
RRIRWRPPRLPRPRPRPGRKPRP	-0.0532
RRIRERPPRLPRPRPRPQEDPRP	-0.0088
RRIRTRPPRLPRPRPRPQFRPRP	-0.132
RRIRMRPPRLPRPRPRPHMGPRP	-0.0941
RRIRMRPPRLPRPRPRPEDHPRP	1.29
RRIRYRPPRLPRPRPRPAIHPRP	-0.406
RRIRWRPPRLPRPRPRPTTQPRP	-0.0204
RRIRTRPPRLPRPRPRPFFVPRP	-0.142
RRIRFRPPRLPRPRPRPTCMPRP	-0.0546
RRIRIRPPRLPRPRPRPWDLPRP	-0.119
RRIRQRPPRLPRPRPRPSYFPRP	-0.515
RRIRRRPPRLPRPRPRPYPNPRP	-0.0882
RRIRLRPPRLPRPRPRPSDDPRP	-0.34
RRIRWRPPRLPRPRPRPLRQPRP	0.539
RRIRYRPPRLPRPRPRPEQNPRP	0.00317
RRIRGRPPRLPRPRPRPLNCPRP	-0.0116
RRIRNRPPRLPRPRPRPPSFPRP	-0.0746
RRIRSRPPRLPRPRPRPCNAPRP	-0.0263
RRIRLRPPRLPRPRPRPDEQPRP	-0.017
RRIRYRPPRLPRPRPRPYNYPRP	-1.3
RRIRKRPPRLPRPRPRPVLSPRP	0.3
RRIRARPPRLPRPRPRPILPPRP	0.0507

Sequence	shrunken log2 fold change
RRIRSRPPRLPRPRPRPICYPRP	-0.475
RRIRPRPPRLPRPRPRPYTYPRP	-0.0956
RRIRERPPRLPRPRPRPRLFPRP	0.00738
RRIRSRPPRLPRPRPRPVGLPRP	0.107
RRIRVRPPRLPRPRPRPALKPRP	0.253
RRIRLRPPRLPRPRPRPIINPRP	-0.448
RRIRSRPPRLPRPRPRPAEFPRP	0.00621
RRIRERPPRLPRPRPRPNRVPRP	-0.00226
RRIRNRPPRLPRPRPRPISDPRP	-0.0335
RRIRHRPPRLPRPRPRPWHWPRP	-0.135
RRIRRRPPRLPRPRPRPWYAPRP	-0.0635
RRIRDRPPRLPRPRPRPCGHPRP	0.232
RRIRIRPPRLPRPRPRPACEPRP	0.17
RRIRYRPPRLPRPRPRPQFKPRP	-0.134
RRIRARPPRLPRPRPRPSRDPRP	0.199
RRIRGRPPRLPRPRPRPTQDPRP	1.34
RRIRCRPPRLPRPRPRPFGSPRP	-0.078
RRIRLRPPRLPRPRPRPIHGPRP	-0.0797
RRIRIRPPRLPRPRPRPTNEPRP	-0.4
RRIRCRPPRLPRPRPRPRLHPRP	-0.0571
RRIRHRPPRLPRPRPRPVFKPRP	0.126
RRIRVRPPRLPRPRPRPCHPPRP	-0.0124
RRIRYRPPRLPRPRPRPYQRPRP	-0.00973
RRIRERPPRLPRPRPRPVYSPRP	-0.409
RRIRNRPPRLPRPRPRPHKAPRP	0.00883

Sequence	shrunken log2 fold change
RRIRHRPPRLPRPRPRPTPVPRP	0.137
RRIRERPPRLPRPRPRPGENPRP	0.00425
RRIRYRPPRLPRPRPRPEPHPRP	-0.0423
RRIRTRPPRLPRPRPRPPRGPRP	0.607
RRIRIRPPRLPRPRPRPCHIPRP	-0.149
RRIRGRPPRLPRPRPRPPLHPRP	0.501
RRIRARPPRLPRPRPRPSMTPRP	0.2
RRIRLRPPRLPRPRPRPETTPRP	0.182
RRIRHRPPRLPRPRPRPNYHPRP	-0.83
RRIRDRPPRLPRPRPRPFPEPRP	-0.144
RRIRLRPPRLPRPRPRPMWHPRP	0.203
RRIRFRPPRLPRPRPRPIKRPRP	0.988
RRIRFRPPRLPRPRPRPGNIPRP	-0.0525
RRIRPRPPRLPRPRPRPDQLPRP	-0.0341
RRIRARPPRLPRPRPRPSANPRP	0.344
RRIRQRPPRLPRPRPRPGCNPRP	-0.0136
RRIRARPPRLPRPRPRPGSAPRP	0.444
RRIRARPPRLPRPRPRPTPQPRP	0.745
RRIRTRPPRLPRPRPRPCSGPRP	-0.307
RRIRQRPPRLPRPRPRPFSDPRP	-0.00196
RRIRMRPPRLPRPRPRPLNVPRP	0.0507
RRIRQRPPRLPRPRPRPLMGPRP	-0.121
RRIRWRPPRLPRPRPRPEALPRP	0.174
RRIRCRPPRLPRPRPRPIFEPRP	0.0936
RRIRERPPRLPRPRPRPACIPRP	-0.0281
